These results are taken from article PMC2998434, “Domain Swapping in Allosteric Modulation of DNA Specificity” (PLoS Biology, 2010).

One data set deals with T1, SgrAI wild type (UniProt Q9F6L0 1-339).
T1 sequence: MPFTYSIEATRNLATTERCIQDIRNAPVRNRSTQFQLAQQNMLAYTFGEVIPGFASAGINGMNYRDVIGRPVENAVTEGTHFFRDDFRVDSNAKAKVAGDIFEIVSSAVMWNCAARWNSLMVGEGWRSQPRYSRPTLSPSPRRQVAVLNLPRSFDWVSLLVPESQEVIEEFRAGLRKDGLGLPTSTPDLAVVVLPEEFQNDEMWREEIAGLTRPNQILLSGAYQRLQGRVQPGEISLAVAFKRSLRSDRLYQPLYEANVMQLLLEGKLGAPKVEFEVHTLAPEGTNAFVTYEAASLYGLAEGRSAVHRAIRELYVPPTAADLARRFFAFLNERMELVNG
The data set is described as follows: X-ray crystal structure, 2.03 A; 50 mM CaCl2; two Ca2+ per active site; domain-swapped tetramer with two duplexes; FPA: 20 mM Tris-OAc pH 8.0, 50 mM KOAc, 10 mM Ca(OAc)2, 1 mM DTT, 10% glycerol, 4 C, 1 nM DNA; native PAGE: same binding buffer, 1 uM SgrAI, 30 min at 4 C, gel. The settings on record: protein: recombinant; chain copies: 2; 5' overhang 1 nt (A) at each end; self-complementary, 2 strand copies.

A further data set concerns the target T2, SgrAI P27W (UniProt Q9F6L0 1-339, P27W).
T2 sequence: T1 sequence with P27W
The data set is described as follows: fluorescence polarization anisotropy; 10 mM Ca2+; FPA: 20 mM Tris-OAc pH 8.0, 50 mM KOAc, 10 mM Ca(OAc)2, 1 mM DTT, 10% glycerol, 4 C, 1 nM DNA; native PAGE: same binding buffer, 1 uM SgrAI, 30 min at 4 C, gel. The settings on record: protein: recombinant, chain copies: 2. On the technique in general: Polarisation of emitted light reports the rotation of a fluorescent probe.

Another data set has as its target T3, SgrAI P27G (UniProt Q9F6L0 1-339, P27G).
T3 sequence: T1 sequence with P27G
Described as above. To be noted: protein: recombinant, chain copies: 2.

Data set [1] concerns the molecule itself. The data set is described as follows: crystal structure; SgrAI with self-complementary 17-mer cognate DNA (1:2 SgrAI dimer:DNA duplex) and Ca2+; 14% PEG 4K, 0.1 M imidazole pH 6.5, 0.15 M NaCl, 0.05 M CaCl2, 17°C; two DNA bound dimers form a domain swapped tetramer (N counts subunits).
Where [2] appears, read: label: 5' FLO on top strand only.
Setting [3] is: label: 5' HEX on both strands (FPA), 5' 32P (native gel), blunt, self-complementary, 2 strand copies.

Positions count from the first letter of the chain named.

B1: 17-2 cognate (crystal DNA) (dsDNA)
DNA 1: AAGTCCACCGGTGGACT
DNA 2: AAGTCCACCGGTGGACT
B1: the binding result with SgrAI wild type was “binds”.

B2: PCP (precleaved primary site DNA) (dsDNA)
DNA 1: GATGCGTGGGTCTTCACA
DNA 2: CCGGTGTGAAGACCCACGCATC
modifications: 5' phosphate at the cleavage site
Regarding B2, the Kd came out at 9 ± 2 nM with SgrAI P27W (setting [2]) and 5 ± 2 nM with SgrAI P27G (setting [2]).

B3: 18-1 (primary site) (dsDNA)
DNA 1: AAGTCCACCGGTGGACTT
DNA 2: AAGTCCACCGGTGGACTT
As for B3, the Kd with SgrAI P27W (setting [3]) was 4 ± 0.8 nM; with SgrAI P27G (setting [3]), 17 ± 5 nM.

B4: SgrAI restriction endonuclease, wild type (enzyme, Streptomyces griseus)
chain: PFTYSIEATRNLATTERCIQDIRNAPVRNRSTQFQLAQQNMLAYTFGEVIPGFASAGINGMNYRDVIGRPVENAVTEGTHFFRDDFRVDSNAKAKVAGDIFEIVSSAVMWNCAARWNSLMVGEGWRSQPRYSRPTLSPSPRRQVAVLNLPRSFDWVSLLVPESQEVIEEFRAGLRKDGLGLPTSTPDLAVVVLPEEFQNDEMWREEIAGLTRPNQILLSGAYQRLQGRVQPGEISLAVAFKRSLRSDRLYQPLYEANVMQLLLEGKLGAPKVEFEVHTLAPEGTNAFVTYEAASLYGLAEGRSAVHRAIRELYVPPTAADLARRFFAFLNERMELVNG
notes: the structure legends name residues 1-24 (swapping domain), 25-30 (hinge loop) and 31-339; residues 1-339 are named for the structure; also called WT SgrAI; wild type SgrAI dimer
As for B4, the “stoichiometry N” value in data set [1] amounted to 4.

What is called Kd is the free concentration of one partner at which half of the binding sites on the other are occupied at equilibrium, for simple one-to-one binding. As usually defined, the stoichiometry N is a count of units in the complex or per binding partner.
